Article PMC4834553
pKd: −log10 of the molar value.

How the values were obtained:
Vn^80–396 (human) = assay: BLI; Octet RED96; Vn 80–396 immobilised on AR2G sensors by amine coupling at pH 5; KatA as analyte, 1 in 3 dilution series (50–0.055 nM) in PBS, 0.05% Tween20; KD from steady state analysis
[1] = target: catalase KatA of H. pylori KR697, endogenous (Helicobacter pylori (endogenous in strain KR697)) (UniProt P77872); assay: flow cytometry on cells; whole H. pylori (wt and ΔkatA) incubated with 3 μg human serum Vn per 10^6 cells, 1 h, 37 °C, PBS 1% BSA; sheep anti-human Vn Ab and FITC-conjugated anti-sheep pAb
[2] = target: catalase KatA of H. pylori KR497, endogenous (Helicobacter pylori (endogenous in strain KR497)) (UniProt P77872); assay: as above
[3] = target: catalase KatA of H. pylori CCUG18943, endogenous (Helicobacter pylori (endogenous in strain CCUG18943)) (UniProt P77872); assay: as above

Substance	pKd (Vn^80–396 (human))	koff (Vn^80–396 (human)) [s⁻¹]	kon (Vn^80–396 (human)) [M⁻¹ s⁻¹]	reduction of Vn binding to whole bacteria on deletion of katA [1] [%]	reduction of Vn binding to whole bacteria on deletion of katA [2] [%]	reduction of Vn binding to whole bacteria on deletion of katA [3] [%]
full length recombinant KatA (from UniProt P77872 1-505)	9.00	0.0003	1e+06	–	–	–
human serum vitronectin (Vn), activated, purified from serum (natural protein)	–	–	–	50	50	21
